First the molecules themselves.
T1: eIF4E (wheat, UniProt P29557 1-215)
T1 sequence: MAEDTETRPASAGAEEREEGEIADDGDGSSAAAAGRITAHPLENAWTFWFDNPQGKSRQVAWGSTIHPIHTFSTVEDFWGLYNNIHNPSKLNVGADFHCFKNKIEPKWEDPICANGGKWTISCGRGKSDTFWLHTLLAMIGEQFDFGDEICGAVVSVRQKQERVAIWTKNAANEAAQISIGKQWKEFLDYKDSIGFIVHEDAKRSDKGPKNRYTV

B1: PEMV2 BL3-6 (crystallization, L1 mutant) (structured_RNA)
RNA: GGUAGAACACGUGGGAUAGGGGAUGACCUUGUCGACCGAAACACGGUCCCCUGCUCCUUCGAGCUGGCAAGGCGCUCACAGGUUCUACC
B2: PEMV2 A23G (structured_RNA)
RNA: GGUAGAACACGUGGGAUAGGGGGUGACCUUGUCGACCGGUUAUCGGUCCCCUGCUCCUUCGAGCUGGCAAGGCGCUCACAGGUUCUAC
B3: PEMV2 G21C (structured_RNA)
RNA: B2 RNA with G21C, G23A
B4: PEMV2 C49U (structured_RNA)
RNA: B2 RNA with G23A, C49U
B5: PEMV2 U52C (structured_RNA)
RNA: B2 RNA with G23A, U52C
B6: PEMV2 C50U:G20A (structured_RNA)
RNA: B2 RNA with G20A, G23A, C50U
B7: PEMV2 C49U:G19A (structured_RNA)
RNA: B2 RNA with G19A, G23A, C49U
B8: PEMV2 C50U (structured_RNA)
RNA: B2 RNA with G23A, C50U
B9: PEMV2 G21A (structured_RNA)
RNA: B2 RNA with G21A, G23A
B10: PEMV2 U17C:A18U (structured_RNA)
RNA: B2 RNA with U17C, A18U, G23A
B11: PEMV2 U65C (structured_RNA)
RNA: B2 RNA with G23A, U65C
B12: PEMV2 U24C (structured_RNA)
RNA: B2 RNA with G23A, U24C
B13: PEMV2 U52C:A26G (structured_RNA)
RNA: B2 RNA with G23A, A26G, U52C

Changes are numbered by the printed parent chain. In names and notes the source's numbering stands.

One data set addresses T1, eIF4E. Description: EMSA. (In general: Mobility shift assays separate free from complexed probe on a gel.)
For the molecule B1, the binding result was “binds”.

A further data set concerns the target T1, eIF4E. Kind of data set: EMSA. This is another data set of the same source.
In the case of B2, the binding result is “no binding”. On the same count and under the same terms, to B3 belongs “no binding”; to B4, “binds”; to B5, “no binding”.

With B6, the binding result was “no binding”. Still for that read-out and setting: to B7 belongs “no binding”; to B8, “no binding”; to B9, “no binding”.

On to B10, for which the binding result is recorded as “binds”. As to B11, the binding result is on record as “no binding”. In the case of B12, the binding result is given as “no binding”. B13: the binding result is reported as “no binding”.

Values taken from publication PMC10484670.
